Measurements as given in the supplement of paper PMC10567573.

B1: KRT71 (parent)
chain: FGSRSLYSLGGVRSLNVASGSGKS
B2: ZNF511 (parent)
chain: EPLPVERDPAAGAAPFRFVARPVR

Variants of: B1
Test: protein stability index of a GFP-peptide fusion (GPS, HEK-293T) (PSI 1-6); higher = more stable
Conditions: c terminus: a fixed tail appended
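Also: lentivirally expressed fusions sorted by FACS into six bins by GFP to DsRed ratio, PSI derived from sequencing read proportions per bin multiplied by bin number.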

Protein stability index: each site, then its substitutions
G2: A 2.02; T 1.32; M 1.99; F 2.33; D 3.02; V 3.98; R 3.5; K 3.75; E 3.3; S 1.99; Q 3.09; L 2.45; I 1.78; W 1.8; Y 2.08; C 3.47; N 2.58; H 1.32; P 2.07
L6: C 2.04; D 3.7; A 1.67
R4: S 2.31; V 1.52; I 1.7; G 2.56; C 2.35; W 1.62; F 1.58; T 2; Y 2.77; E 2.44; P 1.35; K 2.14; D 2.44; N 2.12; A 2.71; Q 2.5; L 1.75; H 2.15; M 1.88
S5: F 1.95; D 2.31; T 1.64; C 1.5; E 2.77; R 2.77; P 2.91; V 1.9; I 2.19; Q 2.16; W 2.33; L 2.15; K 2.65; H 2.24; N 1.99; Y 1.36; G 1.6; A 2.35; M 1.62
S3: I 2.37; Q 2.09; G 1.84; C 1.56; M 2.21; H 2.06; R 1.97; K 1.78; D 1.43; Y 2.7; N 1.26; T 1.95; E 2.22; L 2.47; V 2.23; P 2.71; W 1.59; A 2.19; F 2.22
F1: E 3.83; W 2.16; M 3.75; P 3.92; V 3.81; A 4.02; L 3.43; S 4.56; R 3.55; I 3.33; G 3.44; K 4.06; C 2.87; N 3.85; Y 1.64; T 3.59; D 4.03; Q 4.4; H 3.98

Variants of: B2
Test: as above
Conditions: c terminus: a fixed tail appended

Protein stability index, by site and new letter:
A14: L 2.44; S 3.27; W 2.47; R 2.68; T 2.29; P 2.52; I 1.31; M 2.42; H 2.53; Q 2.91; D 4.71; K 3.16; N 2.69; E 4.11; V 1.51; Y 1.96; G 2.55; C 2.2
R24: I 2.33; P 2.75; M 2.37; F 2.04; G 1.89; T 1.97; N 2.18; L 1.62; D 2.17; A 2.2; C 2.22; E 2.15; Y 1.78; W 1.64; H 2.02; V 1.7; K 2.04; S 1.81; Q 1.77
A13: S 3.04; M 3.42; H 2.43; T 2.5; Q 2.6; K 2.71; N 2.58; R 2.34; P 2.37; F 1.94; D 3.26; E 2.62; C 2; W 1.77; Y 2.02; G 2.48; I 1.66
R17: D 4.13; M 3.88; S 3.87; L 3.64; P 4.88; Q 4.65; E 4.94; N 3.45; G 4.86; A 2.96; K 4.42; W 3.4; I 3.6; C 3.88; H 4.17; V 4.21; T 4.19; Y 2.98; F 2.56
F16: N 4.86; I 4.73; K 4.67; W 2.46; L 4.06; Y 3.82; V 4.62; E 5.25; P 5.26; D 5.52; R 5.16; H 4.75; Q 5.34; S 4.88; M 3.69; A 4.67; C 4.08; G 5.43; T 4.52
V19: T 3.97; A 4.47; N 4.36; W 3.65; H 1.62; Y 4.31; I 2.89; F 3.88; G 5.14; P 5.1; D 4.67; R 4.22; M 4.1; L 3.97; C 3.22; S 4.62; Q 2.99; K 4.83; E 4.57
G12: V 1.92; Q 2.55; L 2.4; T 1.64; N 2.27; W 1.67; R 2.33; M 2.38; Y 1.96; S 2.02; P 1.76; K 2.52
R21: E 2.35; F 2.51; G 2.03; H 2.18; M 1.95; L 2.07; W 1.41; N 1.59; Q 2.96; P 3.54; I 2.58; V 1.8; S 2.14; T 2.57; D 2.27; Y 1.76; K 2.71; C 1.7; A 2.46
P22: D 2.77; A 2.64; T 1.92; G 1.85; M 2.48; W 2.66; L 2.33; N 2.31; F 3.22; R 2.8; H 1.93; K 2.22; C 2.17; I 3.15; Q 2.02; V 2.6; E 2.62; Y 2.32; S 2.51
P15: E 3.04; I 3.22; V 3.12; H 4.05; L 3.68; C 3.77; D 4.21; R 3.78; S 4.09; W 2.32; T 3.94; M 3.73; G 3.84; N 3.64; F 3.23; A 3.76; K 4.09; Q 3.78
F18: C 4.59; N 4.99; V 4.6; G 5.14; T 4.86; R 4.91; M 4.6; P 5.01; D 4.97; A 4.83; L 4.49; H 4.71; S 5.18; Q 4.79; W 4.43; K 4.87; I 4.71; Y 4.32; E 5.37
A20: K 1.97; V 2.46; F 3.42; T 2.8; I 3.21; D 2.46; H 2.81; P 2.2; Q 2.4; L 3.35; E 3.03; G 2.04; S 2.05; R 1.67; M 2.49; N 2.61; Y 4.17; C 1.61; W 2.56
V23: G 2.25; A 2.58; N 2.13; W 2.28; E 2.4; H 2.69; S 2.41; F 2.48; K 2.01; D 2.4; R 2.8; M 2.4; Y 2.07; L 2.73; Q 2.95; T 2.17; I 3; C 3.19; P 2.83
